Test results reported in article PMC10474099, “SLC39A10 promotes malignant phenotypes of gastric cancer cells by activating the CK2-mediated MAPK/ERK and PI3K/AKT pathways” (Experimental & Molecular Medicine, 2023).

Molecular target: the molecule itself
Experiment: native gel or EMSA; native PAGE with Coomassie blue staining; CK2β refolded in 20 mM Tris pH 7.2, 5 mM DTT with 4 μM ZnSO4 (presence of Zn2+); monomer to dimer

B1: CK2β (casein kinase 2 regulatory β subunit), human, recombinant His-tagged (natural protein)
chain: not shown
notes: human CK2β (casein kinase 2 beta subunit), Gene ID 1460, CSNK2B; cloned into pET-28a(+); The plasmid is named pET-28a (+)-HIS-CK2β; also called CSNK2B; HIS-CK2β
  stoichiometry N: 2
